The test concerns the target T1, CD25 on human anaplastic large cell lymphoma Karpas-299 cells (human, UniProt P01589 22-272).
T1 construct: whole, on cells; Endogenous antigen on the cell line
T1 sequence (looked up): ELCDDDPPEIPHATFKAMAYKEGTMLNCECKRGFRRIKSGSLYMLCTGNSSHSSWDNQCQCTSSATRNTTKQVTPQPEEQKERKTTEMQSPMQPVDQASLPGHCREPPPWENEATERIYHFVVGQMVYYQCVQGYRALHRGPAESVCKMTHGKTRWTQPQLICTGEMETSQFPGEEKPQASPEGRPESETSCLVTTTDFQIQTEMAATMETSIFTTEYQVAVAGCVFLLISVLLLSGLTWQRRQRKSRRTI
Nature of the test: flow cytometry, serial dilution of antibody on Karpas-299 wt, ADCR and PBDR cells, Alexa Fluor 488 anti-human Fc secondary. Here is the method:
The cells were then washed and incubated with a F(ab′)2-Goat anti-Human IgG Fc Secondary Antibody conjugated to Alexa Fluor 488. After incubation for 1 hour on ice in the dark the cells were washed and run on a Fortessa X20 flow cytometer, and the mean fluorescence intensity (MFI) determined using the B530/30 laser/filter.

B1: HuMax-TAC mAb (antibody, V domains shown)
VH: QVQLVQSGAEVKKPGSSVKVSCKASGGTFSRYIINWVRQAPGQGLEWMGRIIPILGVENYAQKFQGRVTITADKSTSTAYMELSSLRSEDTAVYYCARKDWFDYWGQGTLVTVSS
VL: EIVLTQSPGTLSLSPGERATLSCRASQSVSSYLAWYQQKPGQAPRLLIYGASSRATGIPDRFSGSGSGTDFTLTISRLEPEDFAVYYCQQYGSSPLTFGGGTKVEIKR
notes: also called AB12; CD25 antibody
On to B1, for which the binding result was “binds”.

For the origin of these results see patent US20220347309A1 (ADC THERAPEUTICS, published 2022).
